In PMC4350430:

Target: His6-ΔIBBMOS6 (Arabidopsis thaliana) (UniProt O04294)
Test: ITC; MicroCal 205, 25°C, 20 mM HEPES, 150 mM NaCl, pH 7.5; His6–ΔIBB–MOS6 in the cell at 43–54 μM, titrated with His6-tagged cargo at 320–940 μM

Chain of UniProt O04294 (O04294 whole entry, stated change not applied): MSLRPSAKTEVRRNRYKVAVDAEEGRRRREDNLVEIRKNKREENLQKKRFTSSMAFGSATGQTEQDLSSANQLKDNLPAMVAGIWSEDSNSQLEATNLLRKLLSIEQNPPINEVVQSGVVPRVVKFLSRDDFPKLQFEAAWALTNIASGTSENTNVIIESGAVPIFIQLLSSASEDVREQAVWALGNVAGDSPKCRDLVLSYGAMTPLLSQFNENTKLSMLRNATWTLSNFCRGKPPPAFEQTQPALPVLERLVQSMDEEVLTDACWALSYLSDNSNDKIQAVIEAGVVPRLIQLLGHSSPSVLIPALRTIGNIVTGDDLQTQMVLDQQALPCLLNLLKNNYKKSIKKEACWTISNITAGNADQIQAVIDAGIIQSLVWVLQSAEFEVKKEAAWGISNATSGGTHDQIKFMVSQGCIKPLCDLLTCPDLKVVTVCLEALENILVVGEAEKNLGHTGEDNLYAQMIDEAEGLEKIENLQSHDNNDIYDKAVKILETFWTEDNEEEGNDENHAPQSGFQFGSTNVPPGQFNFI

With “HaRxL106ΔC–SV40NLS fusion (recombinant, for ITC)” the Kd was 2.22 to 3.7 µM.

For “His6-HaRxL106 (effector domain, amino acids 46–285) (domain or fragment)”, the Kd was 0.54 to 0.85 µM and the stoichiometry N was 1.

In the case of His6–SAP11 (natural protein), the Kd is reported as 4.42 to 6.8 µM.
